Experimental data published in patent US20180244783A1, “COMBINATION THERAPY FOR TREATMENT OF DISEASE” (OncoMed Pharmaceuticals, Inc., priority 2015, published 2018).

Legend:
B16F10 target cells = assay: T cell cytotoxicity, calcein release from B16F10 target cells; format: in vivo, mouse; conditions: splenocytes of treated B16F10 tumor-bearing mice, cultured 6 days with mgp100 peptide; effector:target 25:1; vs Hamster IgG; FIG. 2B
Procedure: To measure changes in T cell toxicity, the mouse melanoma cell line B16F10 was cultured in DMEM culture medium supplemented with 10% (v/v) fetal bovine serum (FBS), 2 mM L-glutamine, and 100 U/mL penicillin at 37° C. in a humidified atmosphere of 5% CO2. Total splenocytes from were cultured for 6 days in RPMI 1640 medium supplemented with 10% FBS, 2 mM L-glutamine, 100 U/mL penicillin, and 1 μg/mL mgp100 peptide (Anaspec). B16F10 target cells were labeled with 10 μM calcein AM (Life Technologies) for 1 hour at 37° C. and then combined with the splenocytes at an effector:target ratio of 25:1. Following a four-hour incubation at 37° C., cell-free supernatants were harvested and calcein release was quantified on a fluorometer at an excitation of 485 nm and an emission of 535 nm. The percentage of specific cell lysis was determined as: % lysis=100×(ER-SR)/(MR-SR), where ER, SR, and MR represent experimental, spontaneous, and maximum calcein release, respectively. Spontaneous release is the fluorescence emitted by target cells incubated in media alone (i.e., in the absence of effector cells), while maximum release is determined by lysing target cells with an equal volume of 10% SDS. For all groups, p<0.05 vs. Hamster IgG.

B16F10 melanoma = B16F10 melanoma tumor growth in mice; format: in vivo; conditions: B16F10 melanoma in C57b16/J mice; vs control antibody (Hamster IgG); 18R5 45 mg/kg Q2W, 54F28 50 mg/kg Q2W, anti-CTLA-4 (4F10-11) 10 mg/kg 3QW; n=10
Procedure: B16F10 melanoma cells were implanted into the rear flanks of C57b16/J mice. When tumors reached a mean tumor volume of ˜100 mm^3 as measured by electronic caliper, mice were grouped and treated with a control antibody (Hamster IgG, 10 mg/kg, 3QW), 18R5 (45 mg/kg, Q2W), anti-CTLA-4 (4F10-11, 10 mg/kg, 3QW), 54F28 (50 mg/kg, Q2W), or a combination of 18R5+ anti-CTLA-4 or 54F28+ anti-CTLA-4. […] Data shown represents the mean ±SEM (n=10).

B16F1 melanoma cells = assay: B16F1 melanoma tumor growth with GVAX, anti-CTLA-4 and anti-PD-L1; format: in vivo; conditions: C57BL6J mice, murine chimera 18R5 added to anti-CTLA-4 (9D9) + anti-PD-L1 (10F.9G2), compared to these antibodies without 18R5, FIGS. 3A-3D
Procedure: The effect of the anti-Fzd antibody, OMP-18R5, on melanoma cell line tumor growth was tested animals receiving the combination of anti-CTLA-4 and anti-PD-L1 antibodies. In these experiments, ten thousand B16F1 melanoma cells were injected subcutaneously into C57BL6J mice. On days 4, 7, and 10 post-implantation, “GVAX” tumor vaccine was administered by the injection of 2 million mitomycin C-treated cells of a B16F1 subclone stably transfected with a plasmid encoding m-GM-CSF (with GM-CSF expression confirmed by ELISA), as previously described by Curran and Allison, Cancer Res 69:7747, 2009. Anti-CTLA-4 clone 9D9 (BioXCell; West Lebanon, N.H.) was dosed on days 5, 8, and 12. Anti-PD-L1 clone 10F.9G2 (BioXCell) was dosed on days 5, 8, 12, 14, 19, 22, and 26, and either 1B7.11 isotype or murine chimera 18R5 were administered days 5, 12, 19, and 26 following parental B16F1 cell implantation.

splenocytes = assay: ELISpot cytokine secretion assay of splenocytes (hgp100 peptide); format: in vivo, mice; conditions: splenocytes with 1 μg/ml hgp100 peptide, 18R5 added to anti-CTLA-4 + anti-PD-L1 therapy
Procedure: Using the ELISpot cytokine secretion assay, secretion of IFN-gamma and IL-2 was measured following 18R5 treatment. In these assays, splenocytes were harvested from a minimum of four mice per group, filtered, and the red blood cells lysed and re-suspended in RPMI+10% FBS+penn/strep at a concentration of 10^6 cells/ml in the presence of 1 μg/ml hgp100 peptide. Cells were plated on pre-coated ELISpot plates, incubated overnight and processed according to manufacturer's instructions (MabTech, Cincinnati, Ohio). Developed plates were read on a BioSys BioReader 6000-F b. The results from this assay are shown in FIG. 4A (IFN-gamma) and FIG. 4B (IL-2). Values shown are total optical density. As shown in these figures, IFN-gamma and IL-2 were increased by addition of 18R5 therapy.

B16F1 tumors = assay: T-cell tumor infiltration by flow cytometry (FACS); format: in vivo, mice; conditions: compared to anti-CTLA-4 + anti-PD-L1 without 18R5 (or control antibodies)
Procedure: The change is T-cell tumor infiltration was also measured. Here, B16F1 tumors were isolated from control antibody, anti-CTLA-4 and anti-mouse PD-L1 combination; and anti-mouse Fzd7 (18R5)+anti-mouse anti-CTLA-4+ anti-mouse PD-L1 combination antibody-treated mice. Single cell suspensions were acquired from 4-6 independently treated tumors and were stained for tumor infiltrating immune cells using fluorescently-labeled anti-CD45, anti-CD4, and anti-CD8 antibodies. Flow cytometry analysis (FACS) was performed and the relative percentage populations of CD45+/CD4+ and CD45+/CD8+ T cells are shown.

Molecule	T cell cytotoxicity (specific cell lysis) (B16F10 target cells)	anti-tumor growth vs control (B16F10 melanoma)	tumor growth (B16F1 melanoma cells)	IFN-gamma secretion (ELISpot, total optical density) (splenocytes; FIG. 4A)	IL-2 secretion (ELISpot, total optical density) (splenocytes; FIG. 4B)	CD4+ T cell tumor infiltration (CD45+/CD4+) (B16F1 tumors; FIG. 6A)	CD8+ T cell tumor infiltration (CD45+/CD8+) (B16F1 tumors; FIG. 6B)
54F28: FZD8-Fc soluble receptor, SEQ ID NO:41 (SEQ ID NO:45 with signal sequence)	increased	significant anti-tumor growth	–	–	–	–	–
18R5: anti-FZD IgG2 antibody binding FZD1, FZD2, FZD5, FZD7, FZD8; heavy chain SEQ ID NO:11, light chain SEQ ID NO:12 (antibody, Heavy chain amino acid sequence without predicted signal sequence; Light chain amino acid sequence without predicted signal sequence) heavy: EVQLVESGGGLVQPGGSLRLSCAASGFTFSHYTLSWVRQAPGKGLEWVSVISGDGSYTYYADSVKGRFTISSDNSKNTLYLQMNSLRAEDTAVYYCARNFIKYVFANWGQGTLVTVSSASTKGPSVFPLAPCSRSTSESTAALGCLVKDYFPEPVTVSWNSGALTSGVHTFPAVLQSSGLYSLSSVVTVPSSNFGTQTYTCNVDHKPSNTKVDKTVERKCCVECPPCPAPPVAGPSVFLFPPKPKDTLMISRTPEVTCVVVDVSHEDPEVQFNWYVDGVEVHNAKTKPREEQFNSTFRVVSVLTVVHQDWLNGKEYKCKVSNKGLPAPIEKTISKTKGQPREPQVYTLPPSREEMTKNQVSLTCLVKGFYPSDIAVEWESNGQPENNYKTTPPMLDSDGSFFLYSKLTVDKSRWQQGNVFSCSVMHEALHNHYTQKSLSLSPGK light: DIELTQPPSVSVAPGQTARISCSGDNIGSFYVHWYQQKPGQAPVLVIYDKSNRPSGIPERFSGSNSGNTATLTISGTQAEDEADYYCQSYANTLSLVFGGGTKLTVLGQPKAAPSVTLFPPSSEELQANKATLVCLISDFYPGAVTVAWKADSSPVKAGVETTTPSKQSNNKYAASSYLSLTPEQWKSHRSYSCQVTHEGSTVEKTVAPTECS	increased	–	decreased	increased	increased	increased	increased
